In a protein production outcome set (Wang et al. 2014):

Test: label from the status in PepcDB records

Sequence	protein production
GVPPSQGDLEYQMSTTARAKRVREAMCPGVSGEGQLALLATQVEGQATNLQRLAEPSQLLKSAIVHLINYQDDAELVTRALPELTKLLNDEDPVVVTKAAMIVNQLSKKEASRRALMGSPQLVAAVVRTMQNTSDLDTARCTTSILHNLSHHREGLLAIFKSGGIPALVRMLSSPVESVLFYAITTLHNLLLYQEGAKMACAGRRAQKMVPLLNKNNPKFLAITTDCLQLLAYGNQESKLIILANGGPQALVQIMRNYSYEKLLWTTSRVLKVLSVCPSNKPAIVEAGGMQALGKHLTSNSPRLVQNCLWTLRNLSDVATKQEGLESVLKILVNQLSVDDVNVLTCATGTLSNLTCNNSKNKTLVTQNSGVEALIHAILRAGDKDDITEPAVCALRHLTSRHPEAEMAQNSVRLNYGIPAIVKLLNQPNQWPLVKATIGLIRNLALCPANHAPLQEAAVIPRLVQLLVKAHQDAQRHVAAGTQQPYTDGVRMEEIVEGCTGALHILARDPMNRMEIFRLNTIPLFVQLLYSSVENIQRVAAGVLCEL	failed
MSEMAGDSSTSEDKIHKPNRERNVSGELDVFEATRYFSDFNEPTTIEYSRIQIQKQSIVTENRQKRVHPETEEHLPKPRVVVIKPQKKEMTRGGGKKLTSFLNSLLRSAGLKKKSKSAPEVETPRVERMRRKSCVVTTHAADASPLTNAGAWSLNARRRSFDEKDLKKSDQKLNIRFCESLYSDQRVETKDPNAGDKNDVIGGCESDSSSESDLFELDLFAKSNP	failed
MHILYFLFPKVTFNSFSTPIFFTLISFYSLVTFFPLLSLFIRTSIPSNLINMIIQNSIKGVFVHLDVKMRFFLDFYFLNSLICYSNYIVPFLLAHTLNLITPSVLTTVECDF	failed
REHDFDDLKFEHFLASAAGAFPAFLEVAEKRIIGEGVLRAVKESMRWHRAENVHFGAFLLLVPLISSWDAGGMVDIAEAARNRLRRTDFRDSLSVLEAFRLSNARVVEAGELNLKDRKTEEEIAQKKINLYEWMKMAPEENLIARELVDGFKISIEGAKFLLSFGNSGKAVVELYYHLLSKFPDPLVIAKMGREYAEKITEWAEKARTEEERKELDEKLLKDGANPGTIADLTASSIFLALAEGWR	not failed
MLPPPPSASPAARENTDPGGHRADSGVSYSKIDPVGTFVRLLGLIAPAWQAVLGATLLGSGTIASNIGLMATAAFLIASAALHPPAGKLMLAIVGVRFFGITRAVCRYLERYVNHSITLGILGRLRVAFYRTLEPLIPAGLQGHHSGDLLSRAVADVATLENFYLRVLNPPLVALPVAAGVFLFLAHFGRTLALAWMGAFLAAGVIFPVGVTIVGRGVMRRQGEARAALNTALVDTVQGLADILVFDHGRQQQEYIATLDRQYLHLQGRKAGLNGLANALTSLASNLALWAVLVLAIPLVNRGQIDGVYLAMLALTAAAALEAAKPLPMLFPHLEGSLAAARRIFALSDTRPAGDPAGPVPHPRDFSLRVQGLRFRYGPGEPPALDGIDFDVPSGARIAIVGPSGAGKSTLVNLLLRFWDYEEGAILLGGYDLKAYPPEELQRFIGVVAQPTHLFHATIAENLLLARPDATREEMERAAREARLHEFIQVLPRGYDTLIGEEGFKLSGGQRQRLAIARALLQNAPILILDEATTGLDAVTEREVMDSIRHLMEGRTTLVITHRLVGLEDMDKILVLDRGRLVQQGRHAELLRQEGLYRHLWQLQQEALP	failed
MEAKLSSIEIPVGQDELSGTLLTPTGMPGVLFVHGWGGSQHHSLVRAREAVGLGCICMTFDLRGHEGYASMRQSVTRAQNLDDIKAAYDQLASLPYVDAHSIAVVGLSYGGYLSALLTRERPVEWLALRSPALYKDAHWDQPKVSLNADPDLMDYRRRALAPGDNLALAACAQYKGDVLLVEAENDVIVPHPVMRNYADAFTNARSLTSRVIAGADHALSVKEHQQEYTRALIDWLTEMVVGRRIALAKEVVAARKQLLKEQQGDAVSLPGQGSREFRGDIRAVEKTSA	not failed
MLQNIPTHVIGGPLGAGKTSLIKRLLAQKPAHERWAVLINEFGQIGLDAALLTTTADGIALGEVAGGCLCCVNGVPFQIGLGRLLRKARPDRLLIEPSGLGHPAQLMAQLREAPWRGVLTVQPGVMVLDAAAMATGQPLPATQQEALAEAGLVVMNKSEQLDEAARQALAEQMKPCALLWTRHADLSLSRLPGFVEGTAVDKHAVDNLTLPNSIGRLPALWADPNVPICLSQTSAEGWSVGWRWHPSQQFDLQRVLHWLEGMAWRRAKVVIHSEGGWYSGNVLEGAPLAWQISEWRQDSRLELIFSAPQDVDTLQAQMAGCLA	failed
MLLFWLEFIGIFIAIFVSAELLAKGADELEDFLGQGITGGIILGFLTALPETIFVIVASLEGSFDVALGSAIGGNVLLFTLGIGLVGVFYAFKWRTALQISSEYSVENVFLVLTTIGMLLVLIYGKLNIISGLLLILIYVIYVVYRVAKFRREGMEREKGNLMKPVGFIIAGGVLLVVFSHYFVEYINEIAIMFNVPAIWLSLVIAPIAGELEEKISAFRLVLMSKDGGSLSILSFVGSKIENATVLLGIIGIFTDYELQQALPEYASSLIANMIALYVLFDKRLKTFESVILIGVYVIIVILSFYL	failed
MHSATIIIGIVCGWIFILTTVQFLYLLIIKRDLQPTGWCSFMEKDYLGISSTVLVSLLFGLALVLVNSWFNQPTVEEVVPRSTYLMVMIALFFIDTVAFIFMQLYFIYDRRQFSNCILSLAFLSCLIYFIKTVIIIQQIIEGRLTSSVVQNDIAIYYLFRQMSLCILIFLALVNKVSENTKQRNLFSKKMTLCISLFFVVGGPIVAHILSSHYESYNLHIAELTNENDQVVWKASYVTIMIFMWLTLLSVNLYFNGLRCDIWNGVTVIAFCAVLYNVSLLFMSRYSVSIWYISRTIEVVSKLTVMVIFMCHIFSALRVTKDIAHRDSLTNIFNRNYFFNELTVQSASAKKTPYCVMIMDIDHFKKVNDTWGHPVGDQVIKTVVSIIGKSIRPDDLFARVGGEEFGVLLTDIDTERAKALAERIRENVERLTGDNPEYAIPQKVTISIGAVVTQKNELNPKEIYQLADNALYEAKETGRNKVVVKEAEILINRKDDE	failed
MVSSLLMSFAPATVRVYATSTKGGSGGPKEEKNPIDFVLGFMTKQDQFYETNPLLKKVDEKEGTTTGGRGTVRGGKNSAPTPVPKKSEGGFGGLGSLFKK	failed
MSATFSPTAVTDLKDIQDVERLMGRIKEARAAVGEVIFGQEAVVDEVLVTLLAGGHALLIGLPGLAKTKLVQTLGTVVGLRDKRVQFTPDLMPADILGSEVLEEDAAGQRGFRFLPGPVFCQLLMADEINRASPRTQSALLQAMQEHRVSVAGHYHDLPAPFHVLATQNPIEQEGTYPLPEAQLDRFLMQVDVGYPDEAAERRMLAATTGVHQPEARAVMTPAELQAAQALVRRVPVGDSVVDAILSLVRAGRPESSPLPEVRDWVAWGPGPRASQALTLAVRARALLDGRFAPSIEDVIALAHPILRHRMALSFGARADGVTLGRVVDRLIDKIALEHHHHHH	not failed
MAFRYEHQEPGSRVISGGRDHSNRLLERLGFTVIDGRPTTVEGERAWRLAVWSHLQLTEDLSQVPPGVLRAFGVYGGGQGIWMDKARTDAVHEGGITMGVLHTGAHYPDEISDNDVIYHYPTTGRGPGRDESEVAATKAAATLKLPIFVIAKPTPRSSVRIVRLAWVEGWEERSRIFLISFGDSRPEHLLTEDHSDNQPFSLTGNRSRSSRRNVRERPGQRRFKLRVFQRYGPRCPLSGIAVPEMIEAAHLRPDAEDGTDDPRNGLPLNAALHRAYDAYLFAIEPETLSVVTRPQGPTIEELGIFTPHLRELPRRPHTEALRWRYREWQLRIGTQG	failed
MSARSLRQEALNLPNAITATRIALIPVFLWFTFYESRVDSFIAAVLYAVTGATDFLDGWVARRKNLVTVIGKFLDPLADKLIVMAALVMLVHLGRVAAWVCIVVLAREFIVTGLRTIAMSEGIVIAAGQEGKHKTAFQVAGITFLLLHYTYPIDAIFFSFDLDANRVGTWLVYISLFFSVWSAVSYFANFIRAVYRREGEAQAAEDVRPNRRTSRG	failed
MGPTLGPAPLRGKSIPMNRTGRALTLGCLLLLQPLLAHAQAGGNSLLIPALGRCTLDPQAQDQAEALTACQKAADEGDAEAQYELGEFYYEGKGAPQDFNQALSYFEKASLQGHAQAQFKLGTMFFHGEGVPANNVQAYIVLKMAAVNGAEDALDTADEVAEHMQRDELEVATQVLGQIFRKYLMELQSADGRSPFSPLP	failed
MKNKGLIATLILLTILVVGELFYNKSEKRLNLSEKQVVKIGILQYVTHDALDAIEKGVEDGLAQEGYKGKKVKLTVLNAEADQSKIQAMSKQLVNHHNDILIGIATPSAQGLAASTKDTPIIMGAVSDPLGAKLVTNMKKPTTNVTGLSNVVPTKQTVQLIKDITPNIKRIGILYASSEDNSVSQVTEFTKYAQKAGLEVLKYSVPSTNEIKTSMSVMTKKVDAVFVPQDNTIASAFRTVIVAANQANIPVYSSVDTMVEQGSIASVAQSQYGLGLETAKQAIKVLRGKPVKDVPVKVIDTGKPSLNLKAAKHLGIKIPKKIMKQAEITVKVDD	failed
MDTEADLFYRQLPKVELHAHLNGSVSFETMEKLIKRKPHLNIEHSMTAIRRGQRRTLDECFQVFKVIHQLVDSEEDILMVAKSVIQEFAADGVKYLELRSTPREVTETGLSKQRYIETVLEAIRQCKQEGVDIDVRFLVAVDRRHGPEVAMQTVKLAEDFLLSSDGTVVGLDLSGDPTVGHGKDLLAALQKAKNCGLKLALHLSEVPSQIDETELLLNLPPDRIGHGTFLHPDVGGSDSLVDKVCKQNIPIEICLTSNVKGQTVPSYDKHHFKYWYNRGHPCVLCTDDKGVFCTDLSQEYQLAASTFGLTKEAVWILSQQAIGYTFAPEPIKQRLEKTWAELKQQILQ	failed
MTSFAQLDIKSEELAIVKTILQQLVPDYTVWAFGSRVKGKAKKYSDLDLAIISEEPLDFLARDRLKEAFSESDLPWRVDLLDWATTSEDFREIIRKVYVVIQEKEKTVEKPTAL	not failed
DRVTLEVGKVIQQGRQSKGLTQKDLATKINEKPQVIADYESGRAIPNNQVLGKIERAIGLKLRGKDIGKPIEKGPRAK	not failed
MSGHKCYSWELQDRFAQDKSVVNKMQQKYWETKQAFIKATGKKEDEHVVASDADLDAKLELFHSIQRTCLDLSKAIVLYQKRICFLSQEENELGKFLRSQGFQDKTRAGKMMQATGKALCFSSQQRLALRNPLCRFHQEVETFRHRAISDTWLTVNRMEQYRTEYRGALLWMKDVSQELDPDLYKQMEKFRKVQTQVRLAKKNFDKLKMDVCQKVDLLGASRCNLLSHMLATYQTTLLHFWEKTSHTMAAIHESFKGYQPYEFTTLKSLQDPMKKLVEKEGKKTSWRENREAVAPEPRQLISLEDEHKDSSTYKTEEGTSVLSSVDKGSVHDTCSGPIDELLDGKPEEACLGPTAGTPEPESGDKDDLLLLNEIFSTSCLDEGEFSREWAAVFGDDRLKEPAPMGAQGEPDPKPQIGSGFLPSQLLDQNMKDLQASLQEPAKAASDLTAWFSLFADLDPLSNPDAVGKTDKEHELLNA	failed
MDHKKVAERVIKDVGRDNIIAGAHCATRLRLVLKDDSKVDQKALDNDPDVKGTFKTNGQYQVIIGPGDVNDVYDEFIKITGLKELSTDDLKKVAAEGQKKNPIMDFIKLLSDIFVPIIPALVAGGLLMALNNFLTSPGLFGPKSVVQMAPNVAGISSMIQVMSAAPFIFMPILVGMSAAKRFGANQFLGATIGMIMTTPGLGGATKFWDIFGLHVAQTNYQYQVIPVLVAVWVLSIFEKYFHKHLPSAVDFTFTPLLSIMITGFLTFTIIGPVFKGVSDAITNAIVWLYDTTGAFGMGVFGLSYSAIVTTGLHQSFPAVETQLLAAFAKNPASSGDFIFVTACMANVAQGAATFAVYFLTKNKKMKGLASSSGVSALLGITEPALFGVNLKYKFPFFCALIGSGVAAAFAGLMHVTAAALGSAGFLGFLSIYPRTIPMWVVSVAISFAVSFILTYVYGKSHLKEEVAEQDVPVNDATDYAEETQKAEKIGKEQLALKDEIIYSPVDGTPESLTKVNDQVFSAKLMGDGAAVIPSDGTIYAPVTGTVTIAYETKHAYGIKSDDGAEVLIHIGLDTVNLKGEHFESFVKQGQRVEKGDKLGSVDLDAVKKAGYDTTVMVVITNTANYANVQRITDAGDKHGDKLIAVTAHE	failed
